Assay results reported in doi:10.1101/2021.07.05.451159.

Experiments:
GST = assay: SEC
[1] = target: Gp22 (ALY06965.1), receptor-binding protein of C. difficile phage CDHS-1 (Clostridium difficile phage CDHS-1); assay: SEC

Substance	stoichiometry N (GST)	stoichiometry N [1]
GST (natural protein)	2	
Gp22 (ALY06965.1), receptor-binding protein of C. difficile phage CDHS-1 (natural protein)		2
